According to US20240342207, “MODIFIED NUCLEIC ACID COMPOSITIONS AND ASSOCIATED METHODS FOR TREATMENT OF PHENYLKETONURIA” (BOARD OF REGENTS, THE UNIVERSITY OF TEXAS SYSTEM, published 2024):

What was measured:
Test in all cases: EMSA; one of 13 of 17 binding mutants; affinity not decreased
Conditions in all cases: tags: His-tag, E. coli; stem-loop
[1] = target: T1, PAH I318T (Homo sapiens, UniProt P00439 P00439:1-452, I318T)
T1 sequence: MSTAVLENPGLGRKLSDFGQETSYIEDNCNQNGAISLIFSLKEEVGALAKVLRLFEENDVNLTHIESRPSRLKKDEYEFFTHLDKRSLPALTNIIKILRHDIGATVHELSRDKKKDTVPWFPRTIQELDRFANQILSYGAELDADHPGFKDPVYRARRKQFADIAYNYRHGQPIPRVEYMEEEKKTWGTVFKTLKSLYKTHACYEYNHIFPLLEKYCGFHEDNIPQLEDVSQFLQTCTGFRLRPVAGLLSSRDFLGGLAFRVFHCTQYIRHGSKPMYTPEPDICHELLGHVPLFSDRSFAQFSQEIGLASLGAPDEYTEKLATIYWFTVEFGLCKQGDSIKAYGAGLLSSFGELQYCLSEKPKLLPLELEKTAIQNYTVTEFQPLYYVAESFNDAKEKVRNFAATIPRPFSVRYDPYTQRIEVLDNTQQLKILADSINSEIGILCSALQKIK

[2] = target: T2, PAH P281L (Homo sapiens, UniProt P00439 P00439:1-452, P281L)
T2 sequence: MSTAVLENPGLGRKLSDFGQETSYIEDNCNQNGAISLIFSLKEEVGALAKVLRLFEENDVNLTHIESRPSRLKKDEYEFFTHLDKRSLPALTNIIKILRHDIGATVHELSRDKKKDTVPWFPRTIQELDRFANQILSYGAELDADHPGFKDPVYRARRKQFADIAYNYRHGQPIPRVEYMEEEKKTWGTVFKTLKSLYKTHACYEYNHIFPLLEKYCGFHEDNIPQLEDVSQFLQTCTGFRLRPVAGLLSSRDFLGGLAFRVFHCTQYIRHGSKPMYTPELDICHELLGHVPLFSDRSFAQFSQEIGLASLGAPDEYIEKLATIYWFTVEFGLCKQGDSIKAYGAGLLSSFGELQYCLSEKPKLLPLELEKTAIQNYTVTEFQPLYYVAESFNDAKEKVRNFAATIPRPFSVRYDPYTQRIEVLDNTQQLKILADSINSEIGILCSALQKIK

[3] = target: T3, PAH F55L (Homo sapiens, UniProt P00439 P00439:1-452, F55L)
T3 sequence: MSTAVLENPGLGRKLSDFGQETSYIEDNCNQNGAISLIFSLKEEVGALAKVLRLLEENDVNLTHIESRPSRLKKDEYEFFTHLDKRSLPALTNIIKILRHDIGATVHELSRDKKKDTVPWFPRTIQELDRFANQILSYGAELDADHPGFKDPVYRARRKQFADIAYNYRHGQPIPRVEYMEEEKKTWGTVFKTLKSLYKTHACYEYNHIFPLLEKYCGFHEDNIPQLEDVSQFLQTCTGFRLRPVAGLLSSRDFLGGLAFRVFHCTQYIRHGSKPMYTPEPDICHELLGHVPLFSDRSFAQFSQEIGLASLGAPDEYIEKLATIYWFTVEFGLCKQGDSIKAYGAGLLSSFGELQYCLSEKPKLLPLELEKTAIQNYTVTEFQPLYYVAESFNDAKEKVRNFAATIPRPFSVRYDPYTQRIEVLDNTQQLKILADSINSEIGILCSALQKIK

[4] = target: T4, PAH A47V (Homo sapiens, UniProt P00439 P00439:1-452, A47V)
T4 sequence: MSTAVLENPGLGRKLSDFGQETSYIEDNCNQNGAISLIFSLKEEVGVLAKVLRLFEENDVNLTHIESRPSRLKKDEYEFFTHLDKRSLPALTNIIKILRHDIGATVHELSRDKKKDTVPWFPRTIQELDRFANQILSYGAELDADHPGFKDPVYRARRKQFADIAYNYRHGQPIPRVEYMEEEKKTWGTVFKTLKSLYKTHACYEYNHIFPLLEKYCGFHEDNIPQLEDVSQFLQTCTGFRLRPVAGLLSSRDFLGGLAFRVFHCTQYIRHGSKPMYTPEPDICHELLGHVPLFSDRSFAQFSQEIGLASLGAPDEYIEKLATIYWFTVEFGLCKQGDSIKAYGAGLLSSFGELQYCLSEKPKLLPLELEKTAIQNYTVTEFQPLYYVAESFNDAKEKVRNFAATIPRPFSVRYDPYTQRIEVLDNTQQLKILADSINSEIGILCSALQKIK

[5] = target: T5, PAH A300S (Homo sapiens, UniProt P00439 P00439:1-452, A300S)
T5 sequence: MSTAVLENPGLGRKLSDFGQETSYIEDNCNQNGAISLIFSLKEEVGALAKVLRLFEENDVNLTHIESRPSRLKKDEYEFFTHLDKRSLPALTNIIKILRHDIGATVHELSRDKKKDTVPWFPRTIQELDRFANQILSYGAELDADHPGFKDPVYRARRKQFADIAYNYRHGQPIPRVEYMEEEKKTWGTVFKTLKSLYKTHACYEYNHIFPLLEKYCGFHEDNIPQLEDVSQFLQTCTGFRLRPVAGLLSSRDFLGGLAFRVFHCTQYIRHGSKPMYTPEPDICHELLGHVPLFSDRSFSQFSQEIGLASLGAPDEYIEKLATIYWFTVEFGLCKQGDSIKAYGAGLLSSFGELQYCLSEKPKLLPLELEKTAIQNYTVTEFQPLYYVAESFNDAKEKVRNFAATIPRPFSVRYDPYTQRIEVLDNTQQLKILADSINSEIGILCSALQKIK

Measured: binding result

B1: HULC 181-201 mimic (ssRNA)
RNA: CAAAAUGCAUAUGUAUCUUUG
binds: all assays above
